The Human Domainome abundance scans (Beltran et al. 2025)
± gives the uncertainty stated by the source.

B1: Protein maelstrom homolog, residues 3 to 71; numbered along this chain, Q96JY0 (parent)
chain: NRKASRNAYYFFVQEKIPELRRRGLPVARVADAIPYCSSDWALLREEEKEKYAEMAREWRAAQGKDPGP

Variants of: B1
Assay: abundance fitness (aPCA) (normalised: wild type 0, dead -1); higher = more abundant; growth selection in yeast, the domain comes from the species named
Conditions: Homo sapiens

Variant	abundance fitness
NRKASRNAYYFFVQEKIPELRRRGLPVARVADAIPYCSSDWALLREEEKEKYAEMAREWRAAQQKDPGP	0.165 ± 0.073
NRKASRNAYYFFVQEKIPELRRRGLPVARVADAIPYCSSDWALLREEEKEKYAEMAREWRAAQEKDPGP	0.088 ± 0.06
NRKASRNAYYFFVQEKIPELRRRGLPVARVADAIPYCSSDWALLREEEKEKYAEMAREWRAAQSKDPGP	0.035 ± 0.049
NRKASRNAYYFFVQEKIPELRRRGLPVARVADAIPYCSSDWALLREEEKEKYAEMAREWRAAQAKDPGP	0.146 ± 0.034
NRKASRNAYYFFVQEKIPELRRRGLPVARVADAIPYCSSDWALLREEEKEKYAEMAREWRAAQLKDPGP	-0.018 ± 0.054
NRKASRNAYYFFVQEKIPELRRRGLPVARVADAIPYCSSDWALLREEEKEKYAEMAREWRAAQYKDPGP	0.181 ± 0.12
NRKASRNAYYFFVQEKIPELRRRGLPVARVADAIPYCSSDWALLREEEKEKYAEMAREWRAAQMKDPGP	-0.008 ± 0.068
NRKASRNAYYFFVQEKIPELRRRGLPVARVADAIPYCSSDWALLREEEKEKYAEMAREWRAAQGSDPGP	-0.154 ± 0.066
NRKASRNAYYFFVQEKIPELRRRGLPVARVADAIPYCSSDWALLREEEKEKYAEMAREWRAAQGMDPGP	-0.497 ± 0.14
NRKASRNAYYFFVQEKIPELRRRGLPVARVADAIPYCSSDWALLREEEKEKYAEMAREWRAAQGQDPGP	-0.084 ± 0.089
NRKASRNAYYFFVQEKIPELRRRGLPVARVADAIPYCSSDWALLREEEKEKYAEMAREWRAAQGTDPGP	-0.26 ± 0.079
NRKASRNAYYFFVQEKIPELRRRGLPVARVADAIPYCSSDWALLREEEKEKYAEMAREWRAAQGNDPGP	-0.116 ± 0.14
NRKASRNAYYFFVQEKIPELRRRGLPVARVADAIPYCSSDWALLREEEKEKYAEMAREWRAAQGCDPGP	0.074 ± 0.13
NRKASRNAYYFFVQEKIPELRRRGLPVARVADAIPYCSSDWALLREEEKEKYAEMAREWRAAQGADPGP	-0.206 ± 0.071
NRKASRNAYYFFVQEKIPELRRRGLPVARVADAIPYCSSDWALLREEEKEKYAEMAREWRAAQGRDPGP	-0.037 ± 0.042
NRKASRNAYYFFVQEKIPELRRRGLPVARVADAIPYCSSDWALLREEEKEKYAEMAREWRAAQGPDPGP	-0.134 ± 0.092
NRKASRNAYYFFVQEKIPELRRRGLPVARVADAIPYCSSDWALLREEEKEKYAEMAREWRAAQGYDPGP	-0.109 ± 0.17
NRKASRNAYYFFVQEKIPELRRRGLPVARVADAIPYCSSDWALLREEEKEKYAEMAREWRAAQGFDPGP	-0.117 ± 0.1
NRKASRNAYYFFVQEKIPELRRRGLPVARVADAIPYCSSDWALLREEEKEKYAEMAREWRAAQGVDPGP	-0.12 ± 0.065
NRKASRNAYYFFVQEKIPELRRRGLPVARVADAIPYCSSDWALLREEEKEKYAEMAREWRAAQGEDPGP	-0.082 ± 0.078

Variant	abundance fitness
NRKASRNAYYFFVQEKIPELRRRGLPVARVADAIPYCSSDWALLREEEKEKYAEMAREWRAAQGHDPGP	-0.259 ± 0.11
NRKASRNAYYFFVQEKIPELRRRGLPVARVADAIPYCSSDWALLREEEKEKYAEMAREWRAAQGGDPGP	-0.048 ± 0.046
NRKASRNAYYFFVQEKIPELRRRGLPVARVADAIPYCSSDWALLREEEKEKYAEMAREWRAAQGLDPGP	-0.175 ± 0.068
NRKASRNAYYFFVQEKIPELRRRGLPVARVADAIPYCSSDWALLREEEKEKYAEMAREWRAANGKDPGP	0.023 ± 0.083
NRKASRNAYYFFVQEKIPELRRRGLPVARVADAIPYCSSDWALLREEEKEKYAEMAREWRAAEGKDPGP	-0.046 ± 0.062
NRKASRNAYYFFVQEKIPELRRRGLPVARVADAIPYCSSDWALLREEEKEKYAEMAREWRAAKGKDPGP	-0.019 ± 0.071
NRKASRNAYYFFVQEKIPELRRRGLPVARVADAIPYCSSDWALLREEEKEKYAEMAREWRAASGKDPGP	0.091 ± 0.057
NRKASRNAYYFFVQEKIPELRRRGLPVARVADAIPYCSSDWALLREEEKEKYAEMAREWRAARGKDPGP	0.054 ± 0.042
NRKASRNAYYFFVQEKIPELRRRGLPVARVADAIPYCSSDWALLREEEKEKYAEMAREWRAADGKDPGP	-0.121 ± 0.13
NRKASRNAYYFFVQEKIPELRRRGLPVARVADAIPYCSSDWALLREEEKEKYAEMAREWRAAGGKDPGP	0.126 ± 0.043
NRKASRNAYYFFVQEKIPELRRRGLPVARVADAIPYCSSDWALLREEEKEKYAEMAREWRAAVGKDPGP	-0.089 ± 0.059
NRKASRNAYYFFVQEKIPELRRRGLPVARVADAIPYCSSDWALLREEEKEKYAEMAREWRAAYGKDPGP	-0.242 ± 0.16
NRKASRNAYYFFVQEKIPELRRRGLPVARVADAIPYCSSDWALLREEEKEKYAEMAREWRAALGKDPGP	-0.321 ± 0.051
NRKASRNAYYFFVQEKIPELRRRGLPVARVADAIPYCSSDWALLREEEKEKYAEMAREWRAAAGKDPGP	-0.018 ± 0.066
NRKASRNAYYFFVQEKIPELRRRGLPVARVADAIPYCSSDWALLREEEKEKYAEMAREWRAAHGKDPGP	-0.31 ± 0.13
NRKASRNAYYFFVQEKIPELRRRGLPVARVADAIPYCSSDWALLREEEKEKYAEMAREWRAAFGKDPGP	-0.202 ± 0.16
NRKASRNAYYFFVQEKIPELRRRGLPVARVADAIPYCSSDWALLREEEKEKYAEMAREWRAACGKDPGP	-0.255 ± 0.13
NRKASRNAYYFFVQEKIPELRRRGLPVARVADAIPYCSSDWALLREEEKEKYAEMAREWRAAWGKDPGP	-0.37 ± 0.091
NRKASRNAYYFFVQEKIPELRRRGLPVARVADAIPYCSSDWALLREEEKEKYAEMAREWRAAPGKDPGP	-0.08 ± 0.067
